{"source": "paper PMC5434554", "about": "“Structural similarities and functional differences clarify evolutionary relationships between tRNA healing enzymes and the myelin enzyme CNPase” (BMC Biochemistry, 2017)", "substrate": "NC(=O)c1ccc[n+]([C@@H]2O[C@H](COP(=O)(O)OP(=O)(O)OC[C@H]3O[C@@H](n4cnc5c(N)ncnc54)[C@@H]4OP(=O)(O)O[C@@H]43)[C@@H](O)[C@H]2O)c1", "assay": "purified protein", "settings": "100 mM MES pH 6.0, 3 mM MgCl2, 5 mM glucose-6-phosphate, 25 °C, CPDase site", "data": [{"protein": "ScTrl1 PNK/CPDase (Saccharomyces cerevisiae S288C) (protein) RTKFLIFPISVIGCGKTTTSQTLVNLFPDSWGHIQNDDITGKDKSQLMKKSLELLSKKEIKCVIVDRNNHQFRERKQLFEWLNELKEDYLVYDTNIKVIGVSFAPYDKLSEIRDITLQRVIKRGNNHQSIKWDELGEKKVVGIMNGFLKRYQPVNLDKSPDNMFDLMIELDFGQADSSLTNAKQILNEIHKAYPILVPEIPKDDEIETAFRRSLDYKPTVRKIVGKGNNNQQKTPKLIKPTYISAKIENYDEIIELVKRCIASDAELTEKFKHLLASGKVQKELHITLGHVMSSREKEAKKLWKSYCNRYTDQITEYNNNRIENAQGSGNNQNTQVKTTDKLNFRLEKLCWDEKIIAIVVELSKDKDGCIIDENNEKIKGLCCQNKIPHITLCKLESGVKAVYSNVLCEKVESAEVDENIKVVKLDNSKEFVGSVYLNF", "values": [{"measurement": "Km", "value": "420 ± 35", "unit": "µM"}, {"measurement": "kcat", "value": 317, "unit": "s⁻¹"}, {"measurement": "kcat/Km", "value": 750000, "unit": "M⁻¹ s⁻¹"}]}, {"protein": "ScTrl1 CPDase (Saccharomyces cerevisiae S288C) (protein) GQADSSLTNAKQILNEIHKAYPILVPEIPKDDEIETAFRRSLDYKPTVRKIVGKGNNNQQKTPKLIKPTYISAKIENYDEIIELVKRCIASDAELTEKFKHLLASGKVQKELHITLGHVMSSREKEAKKLWKSYCNRYTDQITEYNNNRIENAQGSGNNQNTQVKTTDKLNFRLEKLCWDEKIIAIVVELSKDKDGCIIDENNEKIKGLCCQNKIPHITLCKLESGVKAVYSNVLCEKVESAEVDENIKVVKLDNSKEFVGSVYLNF", "values": [{"measurement": "Km", "value": "237 ± 27", "unit": "µM"}, {"measurement": "kcat", "value": 275, "unit": "s⁻¹"}, {"measurement": "kcat/Km", "value": "1.16e+06", "unit": "M⁻¹ s⁻¹"}]}]}
